These results are taken from patent US20220017636A1 (Amgen, published 2022).

Sequences and labels used below:
B1: 18179-D7 (scFv)
scFv: EVQLLESGGGLVQPGGSLRLSCAASGFTFSNAWMSWVRQAPGKGLEWVGRIKGNTYGGTTDYAAPVKGRFTISRDDSKNTLFLQMNSLKTEDTAVYYCTTPSYSGSYYNYFSVMDVWGQGTTVTVSSGGGGSGGGGSGGGGSELVMTQSPSSLSASVGDRVTITCRTSQSISSYLNWYQQKPGRAPKLLIFAASSLQGGVPSRFSGSGSGTDFTLTISSLQPEDFATYYCQQTYSMPFTFGPGTKVDIK
notes: scFv in bacterial lysate, detected with anti-Flag M2
B2: 18179-A7 (scFv)
scFv: B1 scFv with Q13K
notes: as for B1
B3: 18179-D11 (scFv)
scFv: B1 scFv with Q13K, V145Q
notes: as for B1
B4: 18179-E1 (scFv)
scFv: B1 scFv with F82Y
notes: as for B1
B5: 18179-B12 (scFv)
scFv: B1 scFv with Y103N, Y178F, R184K, G198S, D247E
notes: as for B1
B6: 18179-H7 (scFv)
scFv: B1 scFv with G53S, N54K, F82Y, V145Q, Y178F, R184K, G198S, T233S, M236S, D247E
notes: as for B1

Substitutions are numbered along the chain they refer to.

The first experiment concerns the target T1, ADF peptide complexed with HLA-A*02:01 on T2 cells (human).
T1 construct: whole, on cells
Nature of the experiment: flow cytometry, peptide-loaded T2 cells.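 Further: binding of single-chain Fv antibody constructs, raised in XenoMouse, to peptide-pulsed T2 cells measured by flow cytometry.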 On the technique in general: In flow cytometry, cells or beads pass a laser one at a time.
Method: (§1) Binding of pMAGE-HLA scFv constructs, generated from the XenoMouse, on peptide loaded T2 cells was evaluated by flow cytometry.
Regarding B1, the Signal/background turned out to be 1.
On the same count and under the same terms, next, B2: 1; B3: 1; B4: 0.9.
Same read-out and setting: to B5 belongs 1; to B6, 1.1.

The target of the next experiment is T2, DPYSL4 peptide complexed with HLA-A*02:01 on T2 cells (human).
T2 construct: whole, on cells
Nature of the experiment: flow cytometry, peptide-loaded T2 cells.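 Further: binding of single-chain Fv antibody constructs, raised in XenoMouse, to peptide-pulsed T2 cells measured by flow cytometry.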
Method: as §1
For the molecule B1, the Signal/background came to 1.1.
Still for that read-out and setting: to B2 belongs 1.
Same read-out and setting: next, B3: 1.1.
Same read-out and setting: to B4 belongs 1.
For the molecule B5, the Signal/background is 1.
Still for that read-out and setting: to B6 belongs 1.

The next experiment deals with T3, STXBP5 peptide complexed with HLA-A*02:01 on T2 cells (human).
T3 construct: whole, on cells
As to the kind of experiment: flow cytometry, peptide-loaded T2 cells.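 Further: binding of single-chain Fv antibody constructs, raised in XenoMouse, to peptide-pulsed T2 cells measured by flow cytometry.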
Method: as §1
As for B1, the Signal/background turned out to be 1.
In the case of B2, the Signal/background was 1.
Same read-out and setting: next, B3: 1; B4: 1; B5: 1.
As to B6, the Signal/background amounted to 1.

For the next experiment, the target named is T4, MYOF peptide complexed with HLA-A*02:01 on T2 cells (human).
T4 construct: whole, on cells
As to the kind of experiment: flow cytometry, peptide-loaded T2 cells.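 Further: binding of single-chain Fv antibody constructs, raised in XenoMouse, to peptide-pulsed T2 cells measured by flow cytometry.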
Method: as §1
B1 showed a Signal/background of 1.
Same read-out and setting: next, B2: 1; B3: 1.1.
Still for that read-out and setting: to B4 belongs 1; to B5, 1.
On the same count and under the same terms, next, B6: 1.1.

Another experiment concerns the target T5, CNDP2 peptide complexed with HLA-A*02:01 on T2 cells (human).
T5 construct: whole, on cells; also called CNPD2
Nature of the experiment: flow cytometry, peptide-loaded T2 cells.
Method: as §1
B1: the Signal/background turned out to be 1.1.
On the same count and under the same terms, to B2 belongs 1; to B3, 1; to B4, 1.
Same read-out and setting: next, B5: 1.
The molecule B6 had a Signal/background of 1.

The target of a further experiment is T6, MB peptide complexed with HLA-A*02:01 on T2 cells (human).
T6 construct: whole, on cells
Nature of the experiment: flow cytometry, peptide-loaded T2 cells.
Method: as §1
In the case of B1, the Signal/background is 1.
Same read-out and setting: next, B2: 1.1; B3: 1; B4: 1.
The same measure, in the same setting: next, B5: 1; B6: 1.

The next experiment addresses T7, COX14 peptide complexed with HLA-A*02:01 on T2 cells (human).
T7 construct: whole, on cells
Nature of the experiment: flow cytometry, peptide-loaded T2 cells.
Method: as §1
The molecule B1 displayed a Signal/background of 1.
The molecule B2 came in with a Signal/background of 1.
In turn, B3 came in with a Signal/background of 1.
Still for that read-out and setting: next, B4: 0.9; B5: 1.
B6: the Signal/background was 1.

A further experiment concerns the target T8, KEA peptide complexed with HLA-A*02:01 on T2 cells (human).
T8 construct: whole, on cells
Nature of the experiment: flow cytometry, peptide-loaded T2 cells.
Method: as §1
Consider B1, for which the Signal/background is 1.
B2 yielded a Signal/background of 0.9.
Same read-out and setting: to B3 belongs 1.
In turn, B4 displayed a Signal/background of 1.
On the same count and under the same terms, next, B5: 1; B6: 1.

A further experiment deals with T9, SLK peptide complexed with HLA-A*02:01 on T2 cells (human).
T9 construct: whole, on cells
Nature of the experiment: flow cytometry, peptide-loaded T2 cells.
Method: as §1
With B1, the Signal/background is 1.1.
On the same count and under the same terms, to B2 belongs 1; to B3, 1.
Still for that read-out and setting: to B4 belongs 1.1; to B5, 1.
The same measure, in the same setting: to B6 belongs 0.9.

Another experiment has as its target T10, MAGEB2 peptide … (SEQ ID NO: 1) complexed with HLA-A*02:01 on the cell surface (human).
T10 construct: whole, on cells; also called pMAGE-HLA; MAGEB2 pMHC
As to the kind of experiment: flow cytometry, peptide-loaded T2 cells.
Method: as §1
Molecule B1 registered a Signal/background of 281.
Consider B2, for which the Signal/background stood at 267.
On the same count and under the same terms, next, B3: 345.
Still for that read-out and setting: next, B4: 419; B5: 368.
Take B6: the Signal/background came out at 399.
